The record followed here is PMC4125095, “Arabidopsis miR171-Targeted Scarecrow-Like Proteins Bind to GT cis-Elements and Mediate Gibberellin-Regulated Chlorophyll Biosynthesis under Light Conditions”.

The target of data set [1] is T1, SCL27 (His-SCL27) (Arabidopsis thaliana) (UniProt Q7XJM8).
T1 sequence: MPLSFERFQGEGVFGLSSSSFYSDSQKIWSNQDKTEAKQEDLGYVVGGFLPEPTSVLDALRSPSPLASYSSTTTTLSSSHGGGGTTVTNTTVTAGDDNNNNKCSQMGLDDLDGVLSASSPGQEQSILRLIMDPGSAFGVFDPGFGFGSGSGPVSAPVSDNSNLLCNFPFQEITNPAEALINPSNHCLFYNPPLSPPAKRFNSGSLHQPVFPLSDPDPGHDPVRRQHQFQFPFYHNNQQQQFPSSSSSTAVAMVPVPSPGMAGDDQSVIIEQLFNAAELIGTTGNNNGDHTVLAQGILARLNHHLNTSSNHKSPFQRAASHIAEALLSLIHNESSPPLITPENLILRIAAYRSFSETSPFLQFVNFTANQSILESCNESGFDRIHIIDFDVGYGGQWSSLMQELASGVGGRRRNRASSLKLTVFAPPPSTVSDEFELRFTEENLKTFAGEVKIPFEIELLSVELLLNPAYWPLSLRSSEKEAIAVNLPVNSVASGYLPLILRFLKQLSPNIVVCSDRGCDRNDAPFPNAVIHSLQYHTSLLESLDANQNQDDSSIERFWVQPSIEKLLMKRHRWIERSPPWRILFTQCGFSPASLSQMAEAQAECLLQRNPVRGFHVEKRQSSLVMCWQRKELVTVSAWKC
In words: EMSA. Particulars: 1 nM Cy5-DNA, 20 uL binding buffer (composition not given, ref 60), 30 C 20 min; 6% native PAGE, 0.5x TBE, 4 C.

The target of data set [2] is T2, SCL27 (His-SCL27) (Arabidopsis thaliana, UniProt Q7XJM8 1-640).
T2 sequence: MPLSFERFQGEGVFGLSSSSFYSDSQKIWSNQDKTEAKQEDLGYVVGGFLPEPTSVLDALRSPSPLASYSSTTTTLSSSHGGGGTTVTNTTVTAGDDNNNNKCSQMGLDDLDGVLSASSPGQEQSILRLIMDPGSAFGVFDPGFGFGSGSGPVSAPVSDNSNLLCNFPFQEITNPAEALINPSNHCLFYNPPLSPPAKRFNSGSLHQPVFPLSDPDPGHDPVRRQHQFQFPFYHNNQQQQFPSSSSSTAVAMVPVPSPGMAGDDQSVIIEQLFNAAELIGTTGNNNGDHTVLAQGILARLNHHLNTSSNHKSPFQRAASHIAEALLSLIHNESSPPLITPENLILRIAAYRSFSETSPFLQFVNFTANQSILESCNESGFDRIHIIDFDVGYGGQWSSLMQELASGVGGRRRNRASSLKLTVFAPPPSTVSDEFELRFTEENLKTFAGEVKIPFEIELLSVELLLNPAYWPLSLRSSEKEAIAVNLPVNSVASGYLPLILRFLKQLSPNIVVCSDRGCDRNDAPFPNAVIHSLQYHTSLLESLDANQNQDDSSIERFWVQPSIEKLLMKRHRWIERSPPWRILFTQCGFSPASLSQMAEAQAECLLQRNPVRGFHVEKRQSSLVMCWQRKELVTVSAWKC
In words: EMSA; 1 nM probe; 1 nM Cy5-DNA, 20 uL binding buffer (composition not given, ref 60), 30 C 20 min; 6% native PAGE, 0.5x TBE, 4 C. Conditions: protein: recombinant, tags: His (pET28b). (A gel shift assay detects complexes by their altered migration in electrophoresis.)

Turning to “AGCCAGTGGCGATAAGCCTGTTATAGGCATATGAACAAGACAATGGAGGAGGAGGAGGAGATGGTCTAGAAACCGTGACGACGGAGGAGGAAAAGAAAAGAGATGAAGTAGAAGAAGAAAATAAAATAAAATAGAGGCAAAAATGGAAATTTTCATTGGAATTTTGCAACTTTTAGAAATTGTAGAAGATGAAGAGAGCTGTGTGATCCAAAAGTGCTTATCGCCACTGGCT (double strand) [PORC promoter fragment III]”, the binding entry in data set [1] is on record as “binds”.
Same read-out and setting: in the case of “AGCCAGTGGCGATAAGGATTAAAGAAACGGGTGGAATACACAAGAACAATGTATATGCAAGATTGCAGTGGTGTCGTTGATTACTCTCAATTTGATGATAAGATTCAAATTTGATATGAGTTTGGAGAAGAAGAAGATGACGAAGAGATCATTACTTGGCGATGAGACGAACAAGCAGGAAAGTATTGCCTACGCTTCCTGAACTTCATGAGATGCTTATCGCCACTGGCT (double strand) [PORC promoter fragment I]” it was “no binding”.

B1: W (62-bp GT element fragment) (dsDNA)
DNA 1: GGAAAAGAAAAGAGATGAAGTAGAAGAAGAAAATAAAATAAAATAGAGGCAAAAATGGAAAT
DNA 2: ATTTCCATTTTTGCCTCTATTTTATTTTATTTTCTTCTTCTACTTCATCTCTTTTCTTTTCC
On to B1, for which the binding result in data set [2] (three G(A/G)(A/T)AA(A/T) GT elements, mutant) is “binds”.

B2: M (62-bp mutated GT element fragment) (dsDNA)
DNA 1: CCCGGGGAAAAGAGATGAAGTAGAAGAACCCGGGAAAATAAAATAGAGGCAAAAATCCCGGG
DNA 2: CCCGGGATTTTTGCCTCTATTTTATTTTCCCGGGTTCTTCTACTTCATCTCTTTTCCCCGGG
For B2, the binding result in data set [2] is “no binding”.
